Results on 1 substance are retold here after US20150238603A1.

The target in assay [1] is Human CD38 (human) (UniProt P28907). The assay is described as follows: flow cytometry, QuantiBRITE system, LP1 cells. For orientation: A flow cytometer gives signals particle by particle.
Assay [2] has the same target. The assay is described as follows: flow cytometry, QuantiBRITE system, NCI-H929 cells.
Assay [3] has the same target. The assay can be described thus: flow cytometry, QuantiBRITE system, RPMI8226 cells.

Chain of UniProt P28907 (P28907 whole entry): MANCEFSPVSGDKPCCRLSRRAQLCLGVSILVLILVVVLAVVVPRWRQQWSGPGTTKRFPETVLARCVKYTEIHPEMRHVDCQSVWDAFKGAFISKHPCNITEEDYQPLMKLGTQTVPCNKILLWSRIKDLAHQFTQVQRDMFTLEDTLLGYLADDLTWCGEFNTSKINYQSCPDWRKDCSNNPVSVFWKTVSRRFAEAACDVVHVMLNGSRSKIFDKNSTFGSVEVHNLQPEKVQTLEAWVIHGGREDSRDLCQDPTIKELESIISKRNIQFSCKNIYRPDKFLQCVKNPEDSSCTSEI

As for “QuantiBRITE CD38-PE antibody (Becton Dickinson GmbH, Clone HB7, CAT #342371)”, the Antibodies Bound Per Cell (ABC) (antibodies bound per cell) with Human CD38 (human) [1] is 125000; in the assay with Human CD38 (human) [2], 195000; with Human CD38 (human) [3], above 677000.
